Measurements reported in patent publication US20190029975A1, “TOCOPHEROL AND TOCOTRIENOL QUINONE DERIVATIVES FOR INCREASING THIOSULFATE LEVELS OR DECREASING HYDROGEN SULFIDE LEVELS” (BIOELECTRON TECHNOLOGY CORPORATION, priority 2016, published 2019).

Substrate: CC(C)=CCC/C(C)=C/CC/C(C)=C/CC[C@@](C)(O)CCC1=C(C)C(=O)C(C)=C(C)C1=O
Test: Kinetic parameters of EPI-743 with SQOR
Assay type: biochemical, human
Settings: other: 200 micromolar Na2S, 2 mM Na2SO3, pH 7.5, reduced oxygen (<1000 ppm), 30.0 °C
Text: Human sulfide:quinone oxidoreductase (SQOR) protein was expressed and purified according to the method described in Jackson, M.R., et al. “Human Sulfide:Quinone Oxidoreductase Catalyzes the First Step in Hydrogen Sulfide Metabolism and Produces a Sulfane Sulfur Metabolite”, Biochemistry, Publication Date (Web): 1 Aug 2012, with the following exceptions: (1) a chaperone plasmid set (Plasmid pG-KJE8, plasmid #1 in catalog no. 3340) from Takara Bio Inc. (Japan) was used; (2) DHPC detergent was replaced with the following: 1.0% (w/v) CHAPS, 0.5% deoxycholate, or 1.0% octylmaltoside. The detergent was used in the initial lysis buffer, and removed in the IMAC purification step (no detergents in the storage conditions); (3) the ion-exchange (Q-sepharose) chromatography step was not used in the purification. The final SQOR protein contained amino acids 42-450 of the human SQOR protein.
Target protein was purified on IMAC to ≥90% purity (on Ni resin). Target protein was stored in 25 mM Tris pH 7.5, 150mM NaCl, 2 mM DTT 20% glycerol.
EPI-743 was assayed for activity with SQOR. […]
Briefly, SQOR enzyme, compound, inorganic sulfide (200 micromolar Na2S) and a sulfur acceptor (2 mM Na2SO3) were brought together. The reduction of the quinone substrate to hydroquinone product in the presence of sulfide ion, sulfur acceptor and SQOR enzyme was monitored by the decrease in quinone concentration over time, by observing the UV signal diagnostic for the specific quinone (See Table 3):
General assay conditions: Assays were performed in 100 mM Tris, pH 7.5, 0.5 mM EDTA. SQOR was included at approximately 5 nM, as estimated by total protein concentration determined by Bradford assay with BSA as standard and the estimated purity of SQOR from SDS-PAGE. […]
The kinetic parameters of compounds with SQOR were determined by varying the concentration of the compound over a suitable range and interrogating the impact of that variation on the enzymatic rate.
The parameters kcat and Km, for example, can be determined by nonlinear fitting of the rate data to the Michaelis-Menten equation: […]

B1: Human sulfide:quinone oxidoreductase (SQOR) (Homo sapiens) (protein)
chain: NHYEVLVLGGGSGGITMAARMKRKVGAENVAIVEPSERHFYQPIWTLVGAGAKQLSSSGRPTASVIPSGVEWIKARVTELNPDKNCIHTDDDEKISYRYLIIALGIQLDYEKIKGLPEGFAHPKIGSNYSVKTVEKTWKALQDFKEGNAIFTFPNTPVKCAGAPQKIMYLSEAYFRKTGKRSKANIIFNTSLGAIFGVKKYADALQEIIQERNLTVNYKKNLIEVRADKQEAVFENLDKPGETQVISYEMLHVTPPMSPPDVLKTSPVADAAGWVDVDKETLQHRRYPNVFGIGDCTNLPTSKTAAAVAAQSGILDRTISVIMKNQTPTKKYDGYTSCPLVTGYNRVILAEFDYKAEPLETFPFDQSKERLSMYLMKADLMPFLYWNMMLRGYWGGPAFLRKLFHLGMS
notes: The final SQOR protein contained amino acids 42-450 of the human SQOR protein; His tag (inferred from IMAC purification on Ni resin); made in house; E. coli is inferred from the Takara chaperone plasmid pG-KJE8 and from own knowledge of the cited Jackson et al. 2012 method
Work on B1 yielded a Km of 200 µM, a kcat of 76 s⁻¹ and a kcat/Km of 400000 M⁻¹ s⁻¹.
